This note sets out measurements from article PMC4212957, “The serodominant secreted effector protein of Salmonella, SseB, is a strong CD4 antigen containing an immunodominant epitope presented by diverse HLA class II alleles” (Immunology, 2014).

In one assay the target is T1, HLA-DRB1*03:01 (Homo sapiens, UniProt P01903+P01911, A100K/A102G/A103R/A169T/F55Y/I96L/K41T/L162R/M171V/P40S/Q125H/Q178H/Q39Y/R42S/S66N/T106N/T262R/W38E/Y61H).
T1 construct: HLA-DR heterodimers were purified from homozygous Epstein–Barr virus B-lymphoblastoid cell lines; host or cells: homozygous EBV B-lymphoblastoid cell line
The assay can be described thus: Peptide/HLA-DR binding, competitive ELISA. To be noted: ratio IC50 of peptide / IC50 of reference peptide MT2-16, lower = higher affinity, ratio 20 or less high, 20–100 moderate, three independent experiments. In short, it runs like this:
(§1)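 HLA-DR heterodimers, affinity-purified with L243 from homozygous EBV B-lymphoblastoid lines, were tested in competitive ELISA against biotinylated reference peptides. The IC50 is the peptide concentration inhibiting 50% of labelled-peptide binding, expressed as relative affinity to the unlabelled reference peptide.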

Another assay deals with T2, HLA-DRB1*09:01 (Homo sapiens, UniProt P01903+P01911, A100R/A103E/D57H/D86V/F55Y/F60I/F76Y/I96F/K127E/L162R/M171V/P40D/Q125H/Q99R/R33Q/R42F/S133A/S66N/T210M/V115G/W38K/Y107V/Y59G/Y89S).
T2 construct: HLA-DR heterodimers were purified from homozygous Epstein–Barr virus B-lymphoblastoid cell lines; host or cells: homozygous EBV B-lymphoblastoid cell line
The assay can be described thus: Peptide/HLA-DR binding, competitive ELISA. The settings on record: ratio IC50 of peptide / IC50 of reference peptide CTP 427–441, lower = higher affinity, ratio 20 or less high, 20–100 moderate, three independent experiments. In short, it runs like this: as §1
(In general: ELISA stands for enzyme-linked immunosorbent assay.)

The target of another assay is HLA-DRB1*12:02 (Homo sapiens, UniProt P01903+P01911, A100R/A169T/D57E/D86V/F55L/H45Y/I96F/K41T/L162R/M171V/P40S/Q125H/Q178H/Q39Y/Q99D/R42G/S66L/T262R/V114A/V67L/W38E/Y59H/Y61H/Y89S). Kind of assay: Peptide/HLA-DR binding, competitive ELISA. The settings on record: ratio IC50 of peptide / IC50 of reference peptide TFR 141–155, lower = higher affinity, ratio 20 or less high, 20–100 moderate, three independent experiments. Put shortly:
as §1

In a further assay the target is T3, HLA-DRB1*15:02 (Homo sapiens, UniProt P01903+P01911, V115G).
T3 construct: HLA-DR heterodimers were purified from homozygous Epstein–Barr virus B-lymphoblastoid cell lines; host or cells: homozygous EBV B-lymphoblastoid cell line
Kind of assay: Peptide/HLA-DR binding, competitive ELISA. To be noted: ratio IC50 of peptide / IC50 of reference peptide TFR 607–620, lower = higher affinity, ratio 20 or less high, 20–100 moderate, three independent experiments. Put shortly:
as §1

The test system of another assay is PBMCs. Kind of assay: Human IFN-γ ELISpot. The settings on record: 50 μg/ml peptide, 2 × 10^5 PBMCs, 24 hr; both cohorts; positive if > 2 SD above no-peptide/protein control. In kind it is cell-based. The procedure:
CD4 T cell responses to SseB were analysed in peripheral blood mononuclear cell (PBMC) samples from healthy control donors with no reported clinical history of Salmonella infection and from donors who had been experimentally challenged with S. Typhi 12 months previously as described elsewhere.[28] Healthy control blood samples were collected with informed consent, under the approval of Ethics REC reference number 08/H0707/173. The S. Typhi challenge participants were recruited by the Oxford Vaccine Group, University of Oxford and the study was performed at the Centre for Clinical Vaccinology and Tropical Medicine, Oxford. Ethics approval was obtained from the NRES Committee South Central – Oxford A (11/SC/0302). Written, informed consent was provided by all participants. A pre-determined bacterial dose (10^4 colony-forming units) of challenge agent (Quailes strain) was delivered by oral ingestion suspended in a sodium bicarbonate solution.[28] Study exclusion criteria included previous typhoid vaccination, residence in a typhoid endemic country for over 6 months and known diagnosis of a probably or confirmed typhoid infection. Blood samples were collected and PBMCs were purified by Lymphoprep density gradient separation.
Human IFN-γ ELISpot assays were run using reagents from Mabtech (Stockholm, Sweden). Briefly, 2 × 10^5 thawed PBMCs were incubated in pre-coated human IFN-γ ELISpot plates, in triplicate, with 50 μg/ml of SseB peptide or recombinant protein (25 μg/ml) in RPMI-1640 medium containing 2 mM L-glutamine, 50 U/ml penicillin G, 50 μg/ml streptomycin sulphate and 10% fetal calf serum. […] Developed plates were left to dry before spot counting using an AID ELISpot reader (Autoimmun Diagnostika GMBH, Straßberg, Germany). […] To better define HLA restriction, human donor ELISpot responses were also analysed in the presence of HLA class II blocking monoclonal antibodies at a final concentration of 25 μg/ml: L243 (anti-HLA-DRα), SPVL-3 (anti-HLA-DQ), B7/21 (anti-HLA-DP) and control mouse IgG. […]

The next assay concerns the target HLA-DRB1*01:01 (Homo sapiens, UniProt P01903+P01911, A100R/D57E/F55L/F60I/F76Y/I96L/L162R/M171V/P40L/Q125E/R42F/V115G/Y59C). The settings on record: competitive ELISA; ratio IC50 of peptide / IC50 of reference peptide HA 306–318; lower = higher affinity; ratio 20 or less high, 20–100 moderate; three independent experiments.

Regarding “2: SseB overlapping library peptide, residues 11–30 (QNPIVFKNSFGVSNADTGSQ) [Peptide 2]”, in the assay with HLA-DRB1*03:01, the “Relative binding affinity of peptide to HLA-DR molecules DRB1*0301” value was more than 119. Also, the “Relative binding affinity of peptide to HLA-DR molecules DRB1*0901” value in the assay with HLA-DRB1*09:01 came out at 10. The “Relative binding affinity of peptide to HLA-DR molecules DRB1*1202” value in the assay with HLA-DRB1*12:02 is reported as 59. For the same substance, the “Relative binding affinity of peptide to HLA-DR molecules DRB1*1502” value with HLA-DRB1*15:02 was 5. The “human CD4 T-cell IFN-γ ELISpot response to peptide” value in the assay on PBMCs was “largest and most common peptide responses”. For the same substance, in the assay with HLA-DRB1*01:01, the “Relative binding affinity of peptide to HLA-DR molecules DRB1*0101” value amounted to 300.
“11: SseB overlapping library peptide, residues 101–120 (EDVIKYMRDNGILIDGMTID) [Peptide 11]”: the “Relative binding affinity of peptide to HLA-DR molecules DRB1*0301” value with HLA-DRB1*03:01 is reported as more than 119. Besides, the “Relative binding affinity of peptide to HLA-DR molecules DRB1*0901” value in the assay with HLA-DRB1*09:01 is 34. In addition, in the assay with HLA-DRB1*12:02, the “Relative binding affinity of peptide to HLA-DR molecules DRB1*1202” value is 8. For the same substance, the “Relative binding affinity of peptide to HLA-DR molecules DRB1*1502” value with HLA-DRB1*15:02 came out at 37. The “human CD4 T-cell IFN-γ ELISpot response to peptide” value with PBMCs was “largest and most common peptide responses”. In addition, in the assay with HLA-DRB1*01:01, the “Relative binding affinity of peptide to HLA-DR molecules DRB1*0101” value was 61.
AVLTQLTGLISKWGEISSMIAQKTYS [Peptide 18]: the “Relative binding affinity of peptide to HLA-DR molecules DRB1*0301” value at HLA-DRB1*03:01 is reported as more than 119. Besides, the “Relative binding affinity of peptide to HLA-DR molecules DRB1*0901” value on HLA-DRB1*09:01 turned out to be 21. For the same substance, the “Relative binding affinity of peptide to HLA-DR molecules DRB1*1202” value at HLA-DRB1*12:02 came out at 4. In addition, the “Relative binding affinity of peptide to HLA-DR molecules DRB1*1502” value at HLA-DRB1*15:02 is recorded as 63. In addition, in the assay with PBMCs, the “human CD4 T-cell IFN-γ ELISpot response to peptide” value is “less frequent among the epitopes recognized”. Also, the “Relative binding affinity of peptide to HLA-DR molecules DRB1*0101” value on HLA-DRB1*01:01 was 2.
